Source: the nanobody polyreactivity screen of Harvey et al. (2022)

Assay: yeast display, Sf9 membrane polyspecificity reagent, FACS + sequencing; frameworks hold sequencing errors
Method in brief: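 In a synthetic yeast display library (Saccharomyces cerevisiae BJ5465), nanobody expression was induced with galactose for 36–48 hours. FACS gates were set low and high (top ~1%) using anti-HA fluorescence for expression and streptavidin fluorescence for binding of the Sf9 membrane reagent. Each polyreactivity label is drawn from the gate of origin.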

Row | Sequence | polyreactivity (PSR sort gate)
1 | QVQLEESGGRLVQAGGSLRLTCAASGRTYARYAIGWNRQAPGKERQLVAAISRGGTTNYADSVKGRFTISRDNAKNTVYLQMNSLKPEDTAVYYCNRDFHLIHLSSARLDYWGQGTQVTVSS | low polyreactivity
2 | QVQLEESGGSLVQAAGSLRLSCAASGSIFSPYAMGWYRQAPGKERELVAAITWRGGTFYADSVKGRFTISRDNAKNTVDLQMNSLKPEDTAVYYCNARFGQTVKGTYGRYYYWGQGTHVTVSS | high polyreactivity
3 | QVQLEESGGVLVQAGGSLRLSCAASGSNFYLYAMGWYRQAPGKERELVAGITRSGGRTYYADSVKGRFTISRDNAKNTVYLQMNSLKPEDTAVYYCAAYLVVRIRYTQRYDYWGQGTQVTVSS | low polyreactivity
4 | QVQLEESGRGLVQAGGSLPLIFAASGSIIRGYAMGWYRPAPGKERELVAAINWSGSSTYYADSVKGRLTISRDNAKNTVNLQMNSLIPEDTAVYYCALVYYNRNLGGDYWGQGTKVTVSS | low polyreactivity
5 | QVQLEESGRGLVQAGGSLRLSCAASGSISGYYAMGWYRQAPGKERELVAVITSSGTSTYYADSVKGRFTISRDNAKNTVYLQMNSLKPEDTAVYDCWGQGTQVTVSS | low polyreactivity
6 | QVQLEESGRGLVQAGVSLRLSCAASGSTFYRYAMGWYRQAPGKERELVAANSQSGARTYYADSVKGRFTISRDNAKNTVYLQINSLKPEDTAVYYCAAYPVVNEFDYWGQGTQVTVSS | high polyreactivity
7 | QVQLEESGVGLVQAGGSLRFSCAASGRIFYSYAMGCDRQAPGKERELVATISSAGSTYYADSVKGRFTISRDNAKNTVYLQMNSLKPEDTAVYYCAARRPRRYGYWGLGTQVTVSS | high polyreactivity
8 | QVQLEESGVGLVQAGGSLRLSCAASGRTFHIYAMGWYRQAPGKERELVADIRGRSGSTYYADSVKGRFTISRDNAKITVYLQMNSLKPEDTAVYYCAVGRYPYCSARYRFDYWGQGTQVSVSS | high polyreactivity
9 | QVQLEESGVGLVQAGGSLRLSCAASGSTFQTYVMGWYRQAPGKERELVAAISSGGSTNYADSVKGRFTISRDNAKNTVYLQMNSLKPEDTAVYYCAKRWPYFRRGKDGYWGQGTQVTVSS | low polyreactivity
10 | QVQLEESGVGLVQAGGSLRLSCAASGYTFDYYDMAWYRQAPGKERELVAAISCSGGRTYYADSVKGRFTISRDNAKNTVYLQMNSLKPEDTAVYYCNTRYGALGKGGMDYWGQGTQVTVSS | high polyreactivity
11 | QVQLEESRGGLVQAGGSLRLSFAAYGFTYFGYAMGWYRQAPGKERELVAAISTIDGDTYYADSVKGRFTISRDNAKNTFYLLMNSLKPEDNAFYYCAADDYIDGDDYWGQGTQVSVSS | low polyreactivity
12 | QVQLEETGGGLVQAGGSLRLSCAASGITFGDYAMGWYRQAPGKERELVAAISFTGASTYYADSVKWRFTISRDNAKNTVYLLMNSLKPDDTPVYYCAADPYVPYQDFLSGFDFWGQGTQVTVSW | low polyreactivity
13 | QVQLEQSGGGLVQAGGSLRLSCAASGRTFVSNAMGWYRQAPGKERELVADITSGGSTDYADSVKGRFTISRDNANNTVYLQMNSLKPEDTAVYYCATDLWRWYGWFDYWGQGTQVTVSS | low polyreactivity
14 | QVQLGDSGGGLVQAGGSLRISCAASGNTFLYYGMGWYRQAPGKDRDLVAAITQSGGTTYYADSVHGRFTISRDNAKYTVYLQMNSQKPEDTAVYYCGATRYYYYTYVYDDRGDYWGQGTQVTVSS | low polyreactivity
15 | QVQLGESGGALVQAGGSLRLSCAASGSTIYAYDMGWYRPAPGKERELVAAISSGGSTYYADSVKGRFTFSRDNAKNTVYLQMNCLKPEDTAVYYCATEYTYELEASEPSDYDYWGQGTQVTVSS | low polyreactivity
16 | QVQLGESGGGLVHEGGSLRLSCAASGFINFANTMGLYRQAPGKERELVAAITSDGSTYYADSVKGRFTISRDNAKNTVYLQMNSLKPEDTAVYYCNAQSNYADLAYWNDYWGQGTQVTVSS | low polyreactivity

Row | Sequence | polyreactivity (PSR sort gate)
17 | QVQLGESGGGLVQAGGSLRFSCAASGRPFFVYGMGWSRQAPGKERELVAAISWNGGRTYYADSVKGRFTISRDKAKNTVYLQMKSLKPEDTAVYYCNARARDYTGPSSPIFYYWGQGTQVTVSS | low polyreactivity
18 | QVQLGESGGGLVQAGGSLRLSCAASAYIFGSYAMGRSRQAAGKERELVATISYRAGRTYYADSVKGRFTISRDNAKNTVYLQMNSLKPEYTAVYFSDADFVIDLEYDYWGQGTQVTVSS | low polyreactivity
19 | QVQLGESGGGLVQAGGSLRLSCAASGFIFPGYAMGLYRQAPGKERELVAAITGSGGSTYYADSVKGRFTISRDNAKYTVYVQMNSVKTEDTAVDYCGAYVSGYLWGYDYWGHGTQVTVSS | high polyreactivity
20 | QVQLGESGGGLVQAGGSLRLSCAASGFIFRNYAIGWYRPPPGKERELVAAISRSGGSKYYADCVKGRFTISRDKAKNSVYLQMNSLKPVDTAVYYCNKDPRGRIPVPGTWIMDYWGQGTQVTVSS | high polyreactivity
21 | QVQLGESGGGLVQAGGSLRLSCAASGFTFDFYAMGWYRPAPGKEWELVAAINWSGSSTYYADSVKGRFTISRDNAKNTDYLQMNSLKPEDTAVYYCAAQVYYTLFPDVYTMYYWGQGTQETVSS | high polyreactivity
22 | QVQLGESGGGLVQAGGSLRLSCAASGFTFGRYTMGWYRPAPGKERELVASITSSGARTYYADSVKGRFTISRDNAKNTVYLQMNSLKPEDTAVYYCNAGKRGSTYYYWGQGTQVTVSS | high polyreactivity
23 | QVQLGESGGGLVQAGGSLRLSCAASGGTFARNTMGWYRQAPGKERELVAAITRGGSSTYYADSVKGRFTISRDYAKNTVYLQMNSLKPEDTAVYYCNKSLRWLYPYYGTTGRYDYWGQGTQVTVSS | high polyreactivity
24 | QVQLGESGGGLVQAGGSLRLSCAASGIIFRYYAMAWYRQAPGKERELVAAISSSTGNTYYADSVKGRFTISRDNAKNTVYLQMNSLIPEDTAVYYCAARTRQISIVGYNYWGQGTQVTVSS | high polyreactivity
25 | QVQLGESGGGLVQAGGSLRLSCAASGNIFRYYAMGWYRQAPGKERELVAAITWSGGSTYYADSVKGRFTISRDNAKNTVYLQMNSLKQEDTAVYYCNTYRVPYRTVQDDYWGQGTQVTLSS | high polyreactivity
26 | QVQLGESGGGLVQAGGSLRLSCAASGNTFVSNAMGWYRQAPGKERELVAAINSGGSTNYADSVKGRFTISRDNAKNTVYLQMNSLKPEDTAVYYCNKDYDYPQRYWMDYWGQGTQVTVSS | low polyreactivity
27 | QVQLGESGGGLVQAGGSLRLSCAASGRIFPVNAMGWYRQAPGKERELVATITSYSSTYADSVKGRFTISRDNAMNTVVLQMNCLKPEDTAVYYCNADQGYFGYDYWGQGTQVTVSS | low polyreactivity
28 | QVQLGESGGGLVQAGGSLRLSCAASGRIFRNNAMGWYRQAPGKERELVAAITWSGGSTYYADSVKGRFTISRDNAKNTVYLQMNSLKPEDTAVYYCNAGRGYKYSYTYDYWGQGTQVTLSS | low polyreactivity
29 | QVQLGESGGGLVQAGGSLRLSCAASGRIFRWYAMGWYRQAPGKVRELVAAISRSGTSTYYADSVKGRFTISRDNAKNTVYLQMNSLKPEDTAVYYCAADAVIFGMDYWGQGTQVTVSS | low polyreactivity
30 | QVQLGESGGGLVQAGGSLRLSCAASGRIFWGYAMGWYRQAPGKERELVAAITRGTRTNYADSVKGRFTISRDNAKNTVYLQMNSLKPEDTAVYYCAADYRDSYLFYYWGQGTQVTVSS | high polyreactivity
31 | QVQLGESGGGLVQAGGSLRLSCAASGRIFWYNAMGWYRQAPGKERELVAGIRSGGSTNYADSVKGRFTISRDNAKNTVYLQMNSLKPDDTAVYYCNVDHEARKLHVSIKQLSDHWGQGTQVTVSS | low polyreactivity
32 | QVQLGESGGGLVQAGGSLRLSCAASGRTSTGYAMGWYRQAPGKERELVAGIDKIGGRTYYADSVKGRFTISRDNAKNTVYLQMNSLKPEDTAVYYCAKTRYFSVGTHWDYYYWGQGTQVTVSS | high polyreactivity
